Here are results for one substance from patent US20020197647A1.

The target in this assay is full-length c-Jun (Rattus norvegicus (Rat)) (UniProt P17325). Description: cell-based or functional assay.

Turning to “wild-type Stat3 (transfected, expression vector pRcCMV) (from UniProt P42227 1-770)”, the IL-6 dependent response of the α2-macroglobulin luciferase reporter gene in HepG2 cells (fold) came to 30 fold; the IL-6 response of the α2-macroglobulin luciferase reporter gene in HepG2 cells with increasing Stat3 and extra c-Jun (fold above background) came out at 4.
